Data on four molecules can be found in article PMC9482650, “Quantitative fragmentomics allow affinity mapping of interactomes” (Nature Communications, 2022).

Some targets named below: DLG2_3, Q15700; DLG5_1, Q8TDM6; GOPC, Q9HD26; GRASP, Q7Z6J2; GRID2IP_2, A4D2P6; GRIP2_4, Q9C0E4; Inadl_1, Q8NI35; Inadl_2, Q8NI35; LAP2, Q96RT1; MAGI1_2, Q96QZ7; SCRIB_2, Q14160; TJP1_2, Q07157.
Common to all, as to assay: holdup assay
Parameters in all cases: key: below the threshold = too weak to quantify, mostly under pKd 3.1 to 4
What all share (conditions): plain residues with an end cap or a label only (N-terminal biotin on a linker: ado-ado)

Another experiment deals with T1, APBA1_1, Q02410.
T1 sequence (Q02410 651-752, limits assumed, looked up): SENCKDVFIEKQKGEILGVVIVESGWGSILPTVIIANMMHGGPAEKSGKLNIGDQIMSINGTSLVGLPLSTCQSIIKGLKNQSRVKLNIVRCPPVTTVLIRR

For a further experiment, the target named is T2, APBA2_2, Q99767.
T2 sequence (Q99767 654-744, limits assumed, looked up): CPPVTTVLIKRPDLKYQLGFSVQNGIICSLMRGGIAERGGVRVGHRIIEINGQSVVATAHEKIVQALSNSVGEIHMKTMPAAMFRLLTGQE

Another experiment concerns the target T3, ARHGEF11, O15085.
T3 sequence (O15085 42-136, limits assumed, looked up): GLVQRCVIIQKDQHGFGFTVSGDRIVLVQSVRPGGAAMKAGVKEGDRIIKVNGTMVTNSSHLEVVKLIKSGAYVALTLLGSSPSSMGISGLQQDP

In another experiment the target is T4, DLG3_2, Q92796.
T4 sequence (Q92796 221-321, limits assumed, looked up): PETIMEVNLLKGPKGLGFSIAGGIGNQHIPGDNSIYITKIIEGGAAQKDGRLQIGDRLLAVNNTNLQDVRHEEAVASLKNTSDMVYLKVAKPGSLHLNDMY

The target in another experiment is T5, DLG3_3, Q92796.
T5 sequence (Q92796 374-475, limits assumed, looked up): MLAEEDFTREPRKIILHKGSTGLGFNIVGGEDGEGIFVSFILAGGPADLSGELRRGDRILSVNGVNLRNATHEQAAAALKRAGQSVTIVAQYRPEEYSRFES

The target in the next experiment is T6, GRIP1_2, Q9Y3R0.
T6 sequence (Q9Y3R0 145-248, limits assumed, looked up): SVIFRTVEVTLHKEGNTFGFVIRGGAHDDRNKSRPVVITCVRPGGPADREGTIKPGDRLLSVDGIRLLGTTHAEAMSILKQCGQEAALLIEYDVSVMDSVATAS

In a further experiment the target is T7, GRIP1_3, Q9Y3R0.
T7 sequence (Q9Y3R0 247-346, limits assumed, looked up): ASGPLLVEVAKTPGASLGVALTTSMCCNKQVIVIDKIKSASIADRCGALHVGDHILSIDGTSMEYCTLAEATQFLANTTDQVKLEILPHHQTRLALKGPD

The next experiment concerns the target T8, HTRA3, P83110.
T8 sequence (P83110 354-453, limits assumed, looked up): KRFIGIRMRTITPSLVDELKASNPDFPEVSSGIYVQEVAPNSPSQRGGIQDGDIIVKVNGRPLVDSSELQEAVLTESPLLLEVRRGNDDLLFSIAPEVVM

In a further experiment the target is T9, MPDZ_12, O75970.
T9 sequence (O75970 1857-1958, limits assumed, looked up): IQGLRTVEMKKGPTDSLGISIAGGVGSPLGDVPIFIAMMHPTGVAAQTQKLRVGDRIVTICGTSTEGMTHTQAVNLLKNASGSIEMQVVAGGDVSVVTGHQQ

The next experiment addresses T10, MPP6, Q9NZW5.
T10 sequence (Q9NZW5 125-219, limits assumed, looked up): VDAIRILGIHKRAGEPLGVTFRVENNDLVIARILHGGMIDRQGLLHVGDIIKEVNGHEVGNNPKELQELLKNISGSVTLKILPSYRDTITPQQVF

A further experiment addresses T11, PARD3B_1, Q8TEW8.
T11 sequence (Q8TEW8 196-299, limits assumed, looked up): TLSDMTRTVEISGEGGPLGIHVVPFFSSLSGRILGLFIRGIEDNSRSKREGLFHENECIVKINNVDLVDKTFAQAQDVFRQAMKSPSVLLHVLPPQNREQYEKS

In a further experiment the target is T12, SHANK1, Q9Y566.
T12 sequence (Q9Y566 658-767, limits assumed, looked up): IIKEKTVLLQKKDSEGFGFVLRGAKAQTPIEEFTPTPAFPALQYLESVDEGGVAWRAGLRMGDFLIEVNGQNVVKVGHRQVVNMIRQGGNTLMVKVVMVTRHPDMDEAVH

Sequence of DLG5_1, Q8TDM6 (Q8TDM6 617-713): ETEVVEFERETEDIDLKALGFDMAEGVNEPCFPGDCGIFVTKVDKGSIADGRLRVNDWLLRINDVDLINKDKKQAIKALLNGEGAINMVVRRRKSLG
Sequence of LAP2, Q96RT1 (Q96RT1 other isoform, or with tags, fused parts or gaps): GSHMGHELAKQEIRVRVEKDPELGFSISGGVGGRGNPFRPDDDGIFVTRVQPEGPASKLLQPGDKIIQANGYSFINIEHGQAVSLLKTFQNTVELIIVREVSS
Sequence of GRASP, Q7Z6J2 (Q7Z6J2 96-193): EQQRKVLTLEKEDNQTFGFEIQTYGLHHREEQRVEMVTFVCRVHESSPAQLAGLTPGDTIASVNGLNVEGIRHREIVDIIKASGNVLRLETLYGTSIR
Sequence of Inadl_2, Q8NI35 (Q8NI35 238-335): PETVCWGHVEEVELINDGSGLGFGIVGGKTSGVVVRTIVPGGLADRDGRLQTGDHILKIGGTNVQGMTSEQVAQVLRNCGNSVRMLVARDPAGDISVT
Sequence of GRID2IP_2, A4D2P6 (A4D2P6 272-370): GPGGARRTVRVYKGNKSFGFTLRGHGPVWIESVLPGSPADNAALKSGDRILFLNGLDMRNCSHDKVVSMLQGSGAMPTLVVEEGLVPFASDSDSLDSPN
Sequence of MAGI1_2, Q96QZ7 (Q96QZ7 456-580): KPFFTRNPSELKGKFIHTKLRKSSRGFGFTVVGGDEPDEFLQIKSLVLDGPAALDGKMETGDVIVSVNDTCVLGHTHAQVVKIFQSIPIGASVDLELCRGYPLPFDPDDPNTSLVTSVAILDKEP
Sequence of GRIP2_4, Q9C0E4 (Q9C0E4 446-548): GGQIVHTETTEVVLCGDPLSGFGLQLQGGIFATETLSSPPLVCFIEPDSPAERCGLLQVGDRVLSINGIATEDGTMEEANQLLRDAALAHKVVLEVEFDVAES
Sequence of SCRIB_2, Q14160 (Q14160 857-960): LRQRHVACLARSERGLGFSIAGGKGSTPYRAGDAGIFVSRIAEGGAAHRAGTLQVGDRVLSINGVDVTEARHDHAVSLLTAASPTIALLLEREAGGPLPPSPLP
Sequence of Inadl_1, Q8NI35 (Q8NI35 113-229): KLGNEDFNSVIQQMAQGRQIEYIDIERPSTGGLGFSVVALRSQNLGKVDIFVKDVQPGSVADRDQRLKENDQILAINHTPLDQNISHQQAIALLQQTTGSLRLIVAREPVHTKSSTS
Sequence of TJP1_2, Q07157 (Q07157 181-274): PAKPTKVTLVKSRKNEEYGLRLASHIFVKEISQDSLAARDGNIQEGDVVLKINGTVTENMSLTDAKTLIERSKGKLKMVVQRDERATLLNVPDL

B1: STK16, O75716 (peptide)
chain: PAPGQHTTQI
For the molecule B1, the pKd (in general, the negative decadic logarithm of the Kd, by convention in mol/L) with APBA1_1, Q02410 is “below the threshold”; in the experiment with APBA2_2, Q99767 it was “below the threshold”; with ARHGEF11, O15085, “below the threshold”; in the experiment with DLG2_3, Q15700, 3.67; with DLG3_2, Q92796, 4.11; with DLG3_3, Q92796 it was “below the threshold”. Further, the pKd entry was “below the threshold” in the experiment with DLG5_1, Q8TDM6; 3.77 in the experiment with GOPC, Q9HD26; 3.58 in the experiment with GRASP, Q7Z6J2; 3.98 in the experiment with GRID2IP_2, A4D2P6; “below the threshold” with GRIP1_2, Q9Y3R0; “below the threshold” in the experiment with GRIP1_3, Q9Y3R0. The pKd entry was “below the threshold” with GRIP2_4, Q9C0E4; “below the threshold” with HTRA3, P83110; “below the threshold” with Inadl_1, Q8NI35; “below the threshold” with Inadl_2, Q8NI35; “below the threshold” with LAP2, Q96RT1; “below the threshold” in the experiment with MAGI1_2, Q96QZ7. For the same molecule, the pKd entry with MPDZ_12, O75970 was “below the threshold”; with MPP6, Q9NZW5, 3.57; with PARD3B_1, Q8TEW8, 3.69; in the experiment with SCRIB_2, Q14160, “below the threshold”; with SHANK1, Q9Y566, 3.75; with TJP1_2, Q07157, “below the threshold”.

B2: MCM7, P33993 (peptide)
chain: NASRTRITFV
As to B2, the pKd entry in the experiment with APBA1_1, Q02410 is “below the threshold”; in the experiment with APBA2_2, Q99767, “below the threshold”; with ARHGEF11, O15085, 4.35; with DLG2_3, Q15700, 4.58; with DLG3_2, Q92796 it was 4.75; with DLG3_3, Q92796 it was 4.47. The negative-log Kd (pKd) entry with DLG5_1, Q8TDM6 was “below the threshold”; in the experiment with GOPC, Q9HD26, 4.2; in the experiment with GRASP, Q7Z6J2 it was 4.53; in the experiment with GRID2IP_2, A4D2P6, 4.97; with GRIP1_2, Q9Y3R0, “below the threshold”; with GRIP1_3, Q9Y3R0, “below the threshold”. Moreover, the pKd result in the experiment with GRIP2_4, Q9C0E4 is “below the threshold”; with HTRA3, P83110 it was 4.51; with Inadl_1, Q8NI35, “below the threshold”; in the experiment with Inadl_2, Q8NI35, 4.61; with LAP2, Q96RT1 it was 3.49; with MAGI1_2, Q96QZ7, 4.71. Also, the pKd in the experiment with MPDZ_12, O75970 was 3.77; in the experiment with MPP6, Q9NZW5 it was “below the threshold”; in the experiment with PARD3B_1, Q8TEW8, “below the threshold”; with SCRIB_2, Q14160 it was “below the threshold”; with SHANK1, Q9Y566, “below the threshold”; with TJP1_2, Q07157, 3.62.

B3: EFNB3, Q15768 (peptide)
chain: QSPPNIYYKV
As for B3, the pKd result is “below the threshold” with APBA1_1, Q02410; “below the threshold” in the experiment with APBA2_2, Q99767; 4.15 in the experiment with ARHGEF11, O15085; “below the threshold” with DLG2_3, Q15700; “below the threshold” in the experiment with DLG3_2, Q92796; 3.56 in the experiment with DLG3_3, Q92796. In addition, the pKd result with DLG5_1, Q8TDM6 is “below the threshold”; in the experiment with GOPC, Q9HD26, 3.51; with GRASP, Q7Z6J2 it was 3.57; in the experiment with GRID2IP_2, A4D2P6 it was “below the threshold”; with GRIP1_2, Q9Y3R0 it was 3.52; in the experiment with GRIP1_3, Q9Y3R0, “below the threshold”. Moreover, the pKd entry in the experiment with GRIP2_4, Q9C0E4 was “below the threshold”; in the experiment with HTRA3, P83110, 3.53; with Inadl_1, Q8NI35 it was 3.99; with Inadl_2, Q8NI35, “below the threshold”; with LAP2, Q96RT1, “below the threshold”; with MAGI1_2, Q96QZ7, “below the threshold”. The pKd entry in the experiment with MPDZ_12, O75970 is “below the threshold”; with MPP6, Q9NZW5, “below the threshold”; in the experiment with PARD3B_1, Q8TEW8, 3.77; with SCRIB_2, Q14160 it was “below the threshold”; with SHANK1, Q9Y566 it was “below the threshold”; with TJP1_2, Q07157, “below the threshold”.

B4: DENND5A, Q6IQ26 (peptide)
chain: ETSLVKGIDI
Take B4: the pKd result in the experiment with APBA1_1, Q02410 is “below the threshold”; with APBA2_2, Q99767, “below the threshold”; with ARHGEF11, O15085, 3.79; in the experiment with DLG2_3, Q15700 it was “below the threshold”; with DLG3_2, Q92796, 3.57; with DLG3_3, Q92796, “below the threshold”. The negative logarithm of the Kd (pKd) result is “below the threshold” in the experiment with DLG5_1, Q8TDM6; “below the threshold” in the experiment with GOPC, Q9HD26; “below the threshold” with GRASP, Q7Z6J2; “below the threshold” with GRID2IP_2, A4D2P6; “below the threshold” with GRIP1_2, Q9Y3R0; “below the threshold” in the experiment with GRIP1_3, Q9Y3R0. Besides, the pKd entry with GRIP2_4, Q9C0E4 was “below the threshold”; with HTRA3, P83110 it was 3.91; with Inadl_1, Q8NI35, “below the threshold”; with Inadl_2, Q8NI35, “below the threshold”; in the experiment with LAP2, Q96RT1, 3.57; in the experiment with MAGI1_2, Q96QZ7, “below the threshold”. The pKd in the experiment with MPDZ_12, O75970 is 3.6; with MPP6, Q9NZW5, “below the threshold”; in the experiment with PARD3B_1, Q8TEW8 it was 4.23; with SCRIB_2, Q14160 it was “below the threshold”; with SHANK1, Q9Y566, “below the threshold”; with TJP1_2, Q07157 it was 4.03.
